Data from paper PMC6457933 (Science Advances, 2019).

Experiments:
Experiment in all cases: crystal structure
[1] = target: KR2 S254A mutant (Krokinobacter eikastus)
[2] = target: KR2 G263F mutant (Krokinobacter eikastus)
crystal structure = target: the molecule itself

With KR2 S254A mutant (natural protein) the stoichiometry N [1] was 5.

Molecule KR2 G263F mutant (natural protein) has a stoichiometry N [2] of 5.

B1: Krokinobacter eikastus rhodopsin 2 (KR2), wild type (natural protein)
chain: MTQELGNANFENFIGATEGFSEIAYQFTSHILTLGYAVMLAGLLYFILTIKNVDKKFQMSNILSAVVMVSAFLLLYAQAQNWTSSFTFNEEVGRYFLDPSGDLFNNGYRYLNWLIDVPMLLFQILFVVSLTTSKFSSVRNQFWFSGAMMIITGYIGQFYEVSNLTAFLVWGAISSAFFFHILWVMKKVINEGKEGISPAGQKILSNIWILFLISWTLYPGAYLMPYLTGVDGFLYSEDGVMARQLVYTIADVSSKVIYGVLLGNLAITLSKNKELVEANS
modifications: retinal covalently bound to Lys255 via the Schiff base
With B1 the “stoichiometry N” value (crystal structure) was 5.
